Data as given in PMC5389665.

Biological target: TerL P74-26 nuclease domain (residues 256–485) (Thermus phage P74-26)
Assay: SEC

“TerL P74-26 nuclease domain (residues 256–485) (domain or fragment)” was tested. Which stoichiometry N did it give?
The stoichiometry N was 2.
